Target: T1, Pet-1 (Rattus norvegicus, UniProt O70132 SEQ:1-340)
T1 sequence: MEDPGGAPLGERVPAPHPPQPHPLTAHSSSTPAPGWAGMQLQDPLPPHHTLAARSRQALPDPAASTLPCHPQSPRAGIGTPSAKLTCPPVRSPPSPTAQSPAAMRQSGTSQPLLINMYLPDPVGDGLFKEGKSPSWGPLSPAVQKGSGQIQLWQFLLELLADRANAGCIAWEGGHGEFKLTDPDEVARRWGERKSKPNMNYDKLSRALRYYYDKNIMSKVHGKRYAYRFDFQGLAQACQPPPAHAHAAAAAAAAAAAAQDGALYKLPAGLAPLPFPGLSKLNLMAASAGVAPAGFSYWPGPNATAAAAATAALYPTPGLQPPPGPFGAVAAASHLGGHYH
Assay: competition; molar excess unlabeled PEA3 eliminated complexes
Conditions: tags: bacterially expressed; label: 32P

B1: PEA3 site oligonucleotide (dsDNA)
DNA 1: GATCCAGGAAGTGAC
DNA 2: GTCACTTCCTGGATC
B1: binds.

Reference: patent US20030175830, “Reagents and methods for the screening of compounds useful in the treatment of neurological diseases” (Case Western Reserve University, published 2003)
